This is an account of results in the RNAGym collection of RNA variant scans (doi:10.7554/elife.80360).

The chains are these.
B1: HDV Ribozyme (parent)
chain: GGCCGGCAUGGUCCCAGCCUCCUCGCUGGCGCCGGCUGGGCAACAUUCCGAGGGGACCGUCCCCUCGGUAAUGGCGAAUGGGACCCA

Variants of B1 are the subject of the data set. Put plainly: self-cleavage, relative activity (ratio to wild type); higher = more cleavage; co-transcriptional.
Consider C14G U47G, for which the self-cleavage worked out at 0.383.

As to C14G U47C, the self-cleavage amounted to 0.604.

In the case of C14U C22A, the self-cleavage worked out at 0.339.

On to C14U G76U, for which the self-cleavage is 1.14.

For C14G C63U, the self-cleavage came to 0.9.

C14G C63G: the self-cleavage is 0.573.

For C14U A78U, the self-cleavage was found to be 0.156.

Take C14U A78G: the self-cleavage came to 0.831.

Take C14G G76C: the self-cleavage turned out to be 0.731.

On to C14G G76A, for which the self-cleavage was found to be 0.831.

Take C14G G76U: the self-cleavage came out at 0.985.

On to C14U A56C, for which the self-cleavage is 1.44.

For the variant C14U A56U, the self-cleavage was 1.22.

For C14U A16C, the self-cleavage came out at 1.07.

Turning to C14U A16U, the self-cleavage stood at 1.09.

In the case of C14U G68A, the self-cleavage stood at 0.95.

On to C14U G68U, for which the self-cleavage was 1.04.

C14U C33A: the self-cleavage turned out to be 0.201.

On to C14U C33G, for which the self-cleavage was 0.123.

C14U C36A: the self-cleavage is 0.128.

Consider C15G C61U, for which the self-cleavage is 0.434.

In the case of C15G C61G, the self-cleavage was 0.178.

In the case of C14U C58U, the self-cleavage turned out to be 0.991.

As for C14U C58G, the self-cleavage was found to be 1.17.

On to C15A G39C, for which the self-cleavage was 0.107.

On to C15A G39U, for which the self-cleavage worked out at 0.177.

On to C15A G55C, for which the self-cleavage came to 0.482.

As to C15A G55U, the self-cleavage turned out to be 0.608.

Take C15G C41U: the self-cleavage turned out to be 0.277.

As to C15G C41A, the self-cleavage is 0.529.

With C14G U60G, the self-cleavage was 0.511.

Consider C15G C48A, for which the self-cleavage amounted to 0.623.

Regarding C15G C48U, the self-cleavage amounted to 0.237.

Consider C14U C32G, for which the self-cleavage stood at 0.0462.

Regarding C15G C63A, the self-cleavage was determined as 0.684.

Consider C15G C33U, for which the self-cleavage came to 0.415.

As to C15G C33G, the self-cleavage amounted to 0.0489.

Take C15G C33A: the self-cleavage worked out at 0.0405.

Take C14U G54C: the self-cleavage was determined as 1.2.

Regarding C14U G54A, the self-cleavage turned out to be 1.04.

With C15A C61A, the self-cleavage is 0.831.

Regarding C14G G40C, the self-cleavage came to 0.

Regarding C14G G40A, the self-cleavage was determined as 0.623.

Take C14U U47G: the self-cleavage came to 0.939.

For the variant C14U U47C, the self-cleavage was 1.13.

Take C14U G59A: the self-cleavage turned out to be 1.31.

As to C14U G59U, the self-cleavage worked out at 0.997.

For the variant C15G C18U, the self-cleavage came out at 0.0852.

Take C15G C18G: the self-cleavage came to 0.0594.

As to C15G C18A, the self-cleavage stood at 0.0997.

For the variant C14U G73A, the self-cleavage turned out to be 0.831.

On to C14U G73C, for which the self-cleavage came to 0.252.

For C15G C30A, the self-cleavage came out at 0.147.

In the case of C15G C30U, the self-cleavage was found to be 0.145.

For the variant C14U C21A, the self-cleavage came to 0.

With C14U C21U, the self-cleavage is 0.237.

In the case of C15A U69C, the self-cleavage was determined as 0.598.

For the variant C14U C44U, the self-cleavage worked out at 0.831.

In the case of C14U C84G, the self-cleavage was determined as 0.914.

In the case of C14U C84A, the self-cleavage amounted to 0.643.

C15A A42G: the self-cleavage amounted to 0.104.

C15A A42C: the self-cleavage was found to be 0.122.

On to C15A G73C, for which the self-cleavage came out at 0.249.

For the variant C15G A56U, the self-cleavage was 0.914.

Take C15G A56C: the self-cleavage came to 0.739.

For the variant C14U U23C, the self-cleavage is 1.47.

Take C14U U23G: the self-cleavage was found to be 0.712.

C14G C66A: the self-cleavage was 0.665.

As to C15G C24G, the self-cleavage worked out at 0.196.

As for C14G G53A, the self-cleavage was 0.86.

As to C15G A87G, the self-cleavage was found to be 0.543.

Regarding C15A A87C, the self-cleavage was 0.654.

Regarding C15A A87G, the self-cleavage was found to be 0.776.

Regarding C15A A87U, the self-cleavage is 0.746.

Regarding C15A U37A, the self-cleavage is 0.102.

Consider C15G C44U, for which the self-cleavage was found to be 0.434.

Take C15G C44A: the self-cleavage amounted to 0.237.

Consider C15A U23C, for which the self-cleavage was determined as 0.748.

Regarding C15A A83U, the self-cleavage came out at 0.0639.

Turning to C15A A83G, the self-cleavage worked out at 0.284.

Regarding C15G A70U, the self-cleavage is 0.415.

Regarding C14U G25U, the self-cleavage is 0.59.

Turning to C14U G25A, the self-cleavage was 0.115.

For C15A G53C, the self-cleavage was determined as 0.674.

Regarding C15A G53U, the self-cleavage amounted to 0.808.

For the variant C14U U65C, the self-cleavage was 0.997.

Consider C14U U65A, for which the self-cleavage is 1.22.

Take C14U U65G: the self-cleavage amounted to 0.997.

On to C14U A43U, for which the self-cleavage was determined as 0.443.

Regarding C14G G38U, the self-cleavage is 0.106.

Regarding C14U C86A, the self-cleavage came out at 1.1.

In the case of C14U C86G, the self-cleavage came out at 1.12.

As for C14U C86U, the self-cleavage was 0.875.

For the variant C15A U46C, the self-cleavage was determined as 0.653.

With C15A U46A, the self-cleavage came to 0.361.

In the case of C14U G38A, the self-cleavage amounted to 0.0652.

As to C14U G38C, the self-cleavage amounted to 0.158.

As to C14G U69C, the self-cleavage was 0.519.

As for C15A C24A, the self-cleavage came to 0.378.

As for C15A C24U, the self-cleavage is 0.0811.

For C14U C18G, the self-cleavage was 0.0875.

With C15G A45C, the self-cleavage is 0.217.

For C15G A45G, the self-cleavage stood at 0.665.

As to C15G A51G, the self-cleavage worked out at 0.587.

As for C15G A51C, the self-cleavage is 0.623.

On to C15G C62G, for which the self-cleavage stood at 0.237.

Take C15G C62A: the self-cleavage turned out to be 0.554.

Take C15A G81U: the self-cleavage turned out to be 0.232.

With C15A G81C, the self-cleavage turned out to be 0.208.

As to C14G G29A, the self-cleavage was 0.107.

For the variant C15A G40A, the self-cleavage was found to be 0.77.

Take C15A U47C: the self-cleavage was determined as 0.317.

For the variant C15A U47A, the self-cleavage came out at 0.522.

C15A U47G: the self-cleavage came to 0.35.

As to C14U C15A, the self-cleavage was 0.475.

Turning to C14U U27A, the self-cleavage came to 1.03.

As to C14U U27C, the self-cleavage turned out to be 0.723.

On to C14U U27G, for which the self-cleavage turned out to be 1.11.

For the variant C14U C49U, the self-cleavage was 0.942.

Consider C14U C49A, for which the self-cleavage stood at 1.37.

As for C14U G17C, the self-cleavage was 0.156.

For C14U G17A, the self-cleavage was found to be 0.514.

For the variant C14U G17U, the self-cleavage was found to be 0.511.

Take C14U A77C: the self-cleavage amounted to 0.249.

C15A A71C: the self-cleavage was found to be 0.35.

On to C15A A71G, for which the self-cleavage was found to be 0.443.

For C14U C85A, the self-cleavage is 0.978.

Consider C14U G67U, for which the self-cleavage amounted to 1.08.

Consider C15A G59C, for which the self-cleavage is 0.723.

With C14G C61U, the self-cleavage came to 0.598.

Consider C14U G50A, for which the self-cleavage turned out to be 1.01.

Turning to C14G G34U, the self-cleavage turned out to be 0.0594.

Take C14G G34C: the self-cleavage is 0.138.

Consider C15A C66G, for which the self-cleavage stood at 0.688.

Consider C15A C66A, for which the self-cleavage stood at 0.684.

As for C15A C66U, the self-cleavage turned out to be 0.909.

In the case of C14G C86G, the self-cleavage turned out to be 0.604.

Regarding C14G C86A, the self-cleavage amounted to 1.03.

C14U G52A: the self-cleavage stood at 0.973.

As to C14U G52C, the self-cleavage was 1.1.

Take C14U G53C: the self-cleavage is 1.07.

C14U G53A: the self-cleavage came out at 1.11.

Consider C14U G53U, for which the self-cleavage amounted to 1.16.

For the variant C14U G29C, the self-cleavage is 0.0941.

Consider C14U G29A, for which the self-cleavage stood at 0.188.

In the case of C14U C64U, the self-cleavage was 0.972.

Regarding C14U C64A, the self-cleavage is 0.939.

In the case of C14U G74C, the self-cleavage amounted to 0.369.

With C14U G74A, the self-cleavage came out at 0.604.

As to C14U U46C, the self-cleavage came out at 1.03.

In the case of C15A C32A, the self-cleavage worked out at 0.151.

In the case of C15A C32G, the self-cleavage was determined as 0.107.

In the case of C15A U72C, the self-cleavage turned out to be 0.208.

With C15A U72G, the self-cleavage turned out to be 0.277.

As for C15A U72A, the self-cleavage came to 0.107.

Regarding C15A C41G, the self-cleavage stood at 0.285.

With C15A C41A, the self-cleavage came out at 0.655.

As for C15A C41U, the self-cleavage amounted to 0.399.

For C15G C49A, the self-cleavage is 0.519.

Turning to C15G C49G, the self-cleavage came out at 0.499.

For the variant C14U A51U, the self-cleavage was found to be 1.14.

For the variant C14U U72C, the self-cleavage was 0.532.

Regarding C15A A56C, the self-cleavage worked out at 0.782.

Turning to C15G A43C, the self-cleavage came out at 0.0875.

As for C14U C75U, the self-cleavage was 0.138.

Consider C14G G67C, for which the self-cleavage was determined as 0.554.

Regarding C14U U79A, the self-cleavage was determined as 1.02.
